Key:
[1] = biological target: IL-2/IL-15 receptor on primary mouse splenocytes (mouse); experiment: cell-based or functional assay
[2] = biological target: T1, Recombinant mouse uPAR-Fc (R&D Systems, Cat. No. 531-PA-100) (mouse, UniProt P35456 24-297, limits assumed); experiment: SPR (Biacore), mouse uPAR-Fc captured on anti-human antibody chip
T1 construct: not shown: Fc of the bought fusion (captured with the human antibody capture kit); not described
T1 sequence (looked up): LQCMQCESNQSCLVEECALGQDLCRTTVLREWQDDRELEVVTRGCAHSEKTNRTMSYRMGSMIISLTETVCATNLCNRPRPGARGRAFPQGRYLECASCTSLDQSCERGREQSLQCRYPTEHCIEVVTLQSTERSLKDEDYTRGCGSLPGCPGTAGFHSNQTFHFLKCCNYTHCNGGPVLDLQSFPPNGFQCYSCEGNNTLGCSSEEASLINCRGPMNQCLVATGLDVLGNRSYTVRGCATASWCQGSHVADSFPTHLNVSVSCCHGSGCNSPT

[3] = biological target: T2, mouse uPAR on cells (mouse, UniProt P35456 24-298); experiment: flow cytometry on 4T1 cells (express mouse uPAR), anti-His detection
T2 construct: whole, on cells; also called Ms-uPAR; mouse uPAR (CD87)
T2 sequence (looked up): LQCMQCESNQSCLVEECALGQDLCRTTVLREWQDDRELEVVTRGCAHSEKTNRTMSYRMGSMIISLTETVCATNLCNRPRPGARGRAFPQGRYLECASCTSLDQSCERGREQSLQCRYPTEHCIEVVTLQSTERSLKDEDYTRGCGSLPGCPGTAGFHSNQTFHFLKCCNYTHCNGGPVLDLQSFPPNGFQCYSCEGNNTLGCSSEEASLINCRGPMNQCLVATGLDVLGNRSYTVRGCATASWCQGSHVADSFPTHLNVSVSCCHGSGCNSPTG

[4] = biological target: T2, mouse uPAR on cells; experiment: flow cytometry on CT26 cells (express mouse uPAR), anti-His detection
[5] = biological target: T2, mouse uPAR on cells; experiment: flow cytometry on EMT6 cells (express mouse uPAR), anti-His detection
[6] = biological target: T2, mouse uPAR on cells; experiment: flow cytometry on MC38 cells (express mouse uPAR), anti-His detection
[7] = biological target: T3, Human uPAR DIII domain HisAvi Tag (human, biotinylated (site not stated)); experiment: BLI (Octet), biotinylated domain on SA sensor, antibody 200 nM
T3 chain: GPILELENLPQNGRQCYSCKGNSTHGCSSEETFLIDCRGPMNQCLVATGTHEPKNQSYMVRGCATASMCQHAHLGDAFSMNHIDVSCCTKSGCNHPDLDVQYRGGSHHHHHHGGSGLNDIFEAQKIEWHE

[8] = biological target: Human uPAR DII-DIII domain HisAvi Tag (human, biotinylated (site not stated)); experiment: as above
[9] = biological target: T4, histidine-tagged human uPAR (Sino#10925-H08H) (human, UniProt Q03405 23-303); experiment: BLI (Octet), uPAR on sensor, antibody in solution (avidity)
T4 construct: also called uPAR-His

[10] = biological target: T4, histidine-tagged human uPAR …; experiment: BLI (Octet), antibody on anti-mouse Fc sensor, uPAR in solution
[11] = biological target: T5, biotinylated human uPAR (human, UniProt Q03405 23-303, limits assumed, biotinylated (site not stated)); experiment: BLI (Octet) on biotinylated human uPAR; row 'None': no first antibody
[12] = biological target: T6, human uPAR expressed on HEK293 cells (human, UniProt Q03405 23-305); experiment: flow cytometry, HEK293 cells expressing human uPAR, 100 nM uPA present
T6 construct: whole, on cells; also called Hu-uPAR

[13] = biological target: T5, biotinylated human uPAR; experiment: BLI (Octet) competition on biotinylated human uPAR; competitor (first antibody): M1
[14] = biological target: T5, biotinylated human uPAR; experiment: BLI (Octet) competition on biotinylated human uPAR; competitor (first antibody): M5
[15] = biological target: T5, biotinylated human uPAR; experiment: BLI (Octet) competition on biotinylated human uPAR; competitor (first antibody): ATN-368 (ATN-658)
[16] = biological target: T1, Recombinant mouse uPAR-Fc (R&D Systems, …); experiment: SPR (Biacore), mouse uPAR-Fc captured on chip; Table 32 prints 0.15

B1: Mouse cpIL-2:IL-2Ra:mouse uPA-ATF-His6 (other)
chain: SKSFQLEDAENFISNIRVTVVKLKGSDNTFECQFDDESATVVDFLRRWIAFCQSIISTSPQGGSSSTQQQQQHLEQLLMDLQELLSRMENYRNLKLPRMLTFKFYLPKQATELKDLQCLEDELGPLRHVLDLTQGSGGGSELCLYDPPEVPNATFKALSYKNGTILNCECKRGFRRLKELVYMRCLGNSWSSNCQCTSNSHDKSRKQVTAQLEHQKEQQTTTDMQKPTQSMHQENLTGHCREPPPWKHEDSKRIYHFVEGQSVHYECIPGYKALQRGPAISICKMKCGKTGWTQPQLTCVDGGSGGGSVLGAPDESNCGCQNGGVCVSYKYFSRIRRCSCPRKFQGEHCEIDASKTCYHGNGDSYRGKANTDTKGRPCLAWNAPAVLQKPYNAHRPDAISLGLGKHNYCRNPDNQKRPWCYVQIGLRQFVQECMVHDCHHHHHH
notes: also called 101
[1]
  pSTAT5 EC50, mouse NK cells: 20 nM
  pSTAT5 EC50, mouse Tregs: 17 nM
  pSTAT5 EC50, mouse memory CD8 T cells: 27 nM
[2]
  Kd: 0.19 nM
  koff: 0.00026 s⁻¹
  kon: 1.3e+06 M⁻¹ s⁻¹
[3]
  EC50: 1 nM
[4]
  EC50: 1.3 nM
[5]
  EC50: 0.41 nM
[6]
  EC50: 0.71 nM

B2: M1 (antibody, V domains shown)
VH: EVQLQQSGAELVRPGASVKLSCTASGFNIKDEYINWVKQRPEQGLEWIGWIDPENGDTEYASKFQGKATITADTSSNTAYLQLSSLTSEDTAVYYCTGGNYVGWFPYWGQGTLVTVSA
VL: QIVLTQSPAIMSASPGEKVTMTCSASSSVSYMHWYQQKSGTSPKRWLYDTSKLASGVPARFSGSGSGTSYSLTISSMEAEDAATYYCQQWSSNPPYTFGGGTKLEIK
notes: Mouse hybridoma antibody; also called anti-uPAR antibody M1; parental M1
[7]
  binding result: binds
[8]
  binding result: binds
[9]
  Kd: < 0.001 nM
  koff: < 1e-07 s⁻¹
  kon: 448000 M⁻¹ s⁻¹
[10]
  Kd: 0.511 nM
  koff: 0.00034 s⁻¹
  kon: 664000 M⁻¹ s⁻¹
[11]
  response in competition assay: 0.305
[12]
  EC50: 0.66 nM
[13]
  response in competition assay: -0.0441
[14]
  response in competition assay: 0.365
[15]
  response in competition assay: -0.0232

B3: Mouse uPA-ATF His6 (ligand)
chain: GSVLGAPDESNCGCQNGGVCVSYKYFSRIRRCSCPRKFQGEHCEIDASKTCYHGNGDSYRGKANTDTKGRPCLAWNAPAVLQKPYNAHRPDAISLGLGKHNYCRNPDNQKRPWCYVQIGLRQFVQECMVHDCHHHHHH
notes: also called 104
[16]
  Kd: 0.14 nM
[2]
  Kd: 0.15 nM
  koff: 0.00032 s⁻¹
  kon: 2.2e+06 M⁻¹ s⁻¹

Source: patent publication US20220340678A1 (MURAL ONCOLOGY, published 2022)
